From article PMC10989685, “Structural and functional characterization of the IgSF21-neurexin2α complex and its related signaling pathways in the regulation of inhibitory synapse organization” (Frontiers in Molecular Neuroscience, 2024)

Target: T1, Recombinant human Fc-tagged NRXN2α (human Nrxn2α-Fc, R&D Systems #6636-NX) (human, UniProt Q9P2S2 29-1636)
T1 construct: Neurexin2α (Nrxn2α), human, ectodomain; The catalogue number is printed for the pull-down only; Limits and splice variant are in the supplier's data sheet; also called soluble Nrxn2α ectodomain; soluble Nrxn2α; source: bought: R&D Systems (#6636-NX), highly purified
T1 sequence (Q9P2S2 29-1636): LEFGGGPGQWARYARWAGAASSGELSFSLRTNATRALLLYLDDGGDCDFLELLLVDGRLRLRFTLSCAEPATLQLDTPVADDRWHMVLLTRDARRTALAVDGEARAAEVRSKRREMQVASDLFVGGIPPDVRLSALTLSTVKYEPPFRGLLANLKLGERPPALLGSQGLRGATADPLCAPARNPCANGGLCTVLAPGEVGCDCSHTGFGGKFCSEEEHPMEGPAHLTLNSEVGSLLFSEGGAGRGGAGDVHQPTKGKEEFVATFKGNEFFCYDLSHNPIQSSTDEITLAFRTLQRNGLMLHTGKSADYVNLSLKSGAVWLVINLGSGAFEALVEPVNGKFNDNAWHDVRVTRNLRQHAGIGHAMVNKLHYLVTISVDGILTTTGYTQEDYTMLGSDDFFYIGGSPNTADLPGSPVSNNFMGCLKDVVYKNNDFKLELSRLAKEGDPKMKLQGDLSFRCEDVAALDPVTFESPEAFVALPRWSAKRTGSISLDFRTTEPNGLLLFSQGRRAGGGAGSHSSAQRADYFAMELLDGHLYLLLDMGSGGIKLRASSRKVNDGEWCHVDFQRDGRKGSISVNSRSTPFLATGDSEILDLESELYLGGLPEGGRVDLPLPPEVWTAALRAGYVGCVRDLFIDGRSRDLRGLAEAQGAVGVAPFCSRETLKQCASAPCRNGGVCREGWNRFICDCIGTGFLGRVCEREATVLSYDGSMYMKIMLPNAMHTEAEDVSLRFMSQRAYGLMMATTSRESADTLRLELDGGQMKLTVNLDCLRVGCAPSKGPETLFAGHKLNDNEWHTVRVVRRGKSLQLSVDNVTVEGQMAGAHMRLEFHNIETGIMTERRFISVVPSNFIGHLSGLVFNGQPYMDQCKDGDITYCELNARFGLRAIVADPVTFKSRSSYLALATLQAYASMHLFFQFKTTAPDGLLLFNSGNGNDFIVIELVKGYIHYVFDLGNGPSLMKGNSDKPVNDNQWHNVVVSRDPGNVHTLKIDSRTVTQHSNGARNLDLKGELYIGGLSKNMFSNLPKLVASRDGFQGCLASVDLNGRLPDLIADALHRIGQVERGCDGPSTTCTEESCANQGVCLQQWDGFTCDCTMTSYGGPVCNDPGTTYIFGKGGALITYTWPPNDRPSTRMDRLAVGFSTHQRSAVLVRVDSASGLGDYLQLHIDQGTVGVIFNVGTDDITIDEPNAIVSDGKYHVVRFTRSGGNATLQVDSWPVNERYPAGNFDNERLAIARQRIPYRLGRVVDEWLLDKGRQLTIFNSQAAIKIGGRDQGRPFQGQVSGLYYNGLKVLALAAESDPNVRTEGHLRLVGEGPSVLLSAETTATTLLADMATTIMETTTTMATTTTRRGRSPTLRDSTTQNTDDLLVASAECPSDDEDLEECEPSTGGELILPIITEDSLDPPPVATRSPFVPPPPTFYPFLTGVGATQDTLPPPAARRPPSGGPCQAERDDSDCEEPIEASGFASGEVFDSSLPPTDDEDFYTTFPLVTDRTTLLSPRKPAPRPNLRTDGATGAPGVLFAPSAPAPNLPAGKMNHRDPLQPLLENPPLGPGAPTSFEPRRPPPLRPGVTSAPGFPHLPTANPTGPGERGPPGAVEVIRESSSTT
Experiment: SPR; Biacore T200; IgSF21-His amine-coupled to a CM5 chip (500 RU); NRXN2α-Fc as analyte, 0 to 200 nM; PBS pH 7.4, 0.025% Tween-20, 25°C, 20 μl/min; one-site Langmuir (1:1) model, kinetic analysis
Conditions: both partners purified

Kd: 5.67 nM
B1: Recombinant human His-tagged IgSF21 protein (R&D Systems #10330-S2) (natural protein, UniProt Q96ID5 25-444, looked up)
chain: YLTVNIEPLPPVVAGDAVTLKCNFKTDGRMREIVWYRVTDGGTIKQKIFTFDAMFSTNYSHMENYRKREDLVYQSTVRLPEVRISDNGPYECHVGIYDRATREKVVLASGNIFLNVMAPPTSIEVVAADTPAPFSRYQAQNFTLVCIVSGGKPAPMVYFKRDGEPIDAVPLSEPPAASSGPLQDSRPFRSLLHRDLDDTKMQKSLSLLDAENRGGRPYTERPSRGLTPDPNILLQPTTENIPETVVSREFPRWVHSAEPTYFLRHSRTPSSDGTVEVRALLTWTLNPQIDNEALFSCEVKHPALSMPMQAEVTLVAPKGPKIVMTPSRARVGDTVRILVHGFQNEVFPEPMFTWTRVGSRLLDGSAEFDGKELVLERVPAELNGSMYRCTAQNPLGSTDTHTRLIVFENPNIPRGTEDSN
notes: Immunoglobulin superfamily member 21 (IgSF21), human, soluble recombinant protein; Soluble bought protein, probably the ectodomain without the GPI-anchor signal; also called IgSF21-His; human IgSF21-His; source: bought: R&D Systems (#10330-S2), purified
